According to patent US8323941B2, “Histone demethylation mediated by the nuclear amine oxidase homolog LSD1” (President and Fellows of Harvard College, priority 2004, dated 2012):

How the values were obtained:
[1] = molecular target: T1, LSD1 (Homo sapiens, UniProt O60341); assay: LSD1 demethylation assay on free (bulk) histones, Western blotting; format: biochemical; set-up: Full length (1-851aa) and C-terminal deleted (1-427 aa) human LSD1 cDNAs; 6xHis (N); made in house; host or cells: bacteria (IPTG induction); conditions: H3-K4 demethylation, recombinant LSD1
Protocol: (§1) Demethylation assay. LSD1 demethylation activity on free histone or nucleosomal histone was carried out as previously reported (Shi et al., 2004). Briefly, bulk histones or mononucleosomes were incubated with purified His-LSD1 with or without purified His-CoREST, His-CoREST mutants, His-BHC80 and/or GST-HDAC1 in the histone demethylase activity (HDM) assay buffer (50 mM Tris pH8.5, 50 mM KCl, 5 mM MgCl, 0.5% BSA and 5% glycerol) from 10 mins up to 1 hour at 37° C. The demethylase activity of LSD1 under various conditions was evaluated by Western blotting using K4-H3 methylation-specific antibodies.

[2] = molecular target: T1, LSD1; assay: LSD1 demethylation assay on nucleosomal substrates (mononucleosomes), Western blotting; format: biochemical; set-up: Full length (1-851aa) and C-terminal deleted (1-427 aa) human LSD1 cDNAs; 6xHis (N); made in house; host or cells: bacteria
Protocol: Preparation of mononucleosome. Mononucleosome was made according to a standard protocol (Tagami et al., 2004; Utley et al., 1996). Briefly, nuclear pellet from both TSA-treated or non-treated HeLa cells was homogenized for 60 times with type A pestle to obtain oligo-nucleosomes. The oligo-nucleosomes were then digested with micrococcal nuclease (40 units/mL) for 10 mins at 30° C. The nuclease is inactivated by 5 mM EDTA. Digested materials were spun at 14000 rpm for 3 mins. Resulting supernatant was spun again for additional 3 mins at the same speed. Supernatant from the second spin was subject to 10-25% glycerol gradient sedimentation. The monocleosome-containing fractions were identified by examining aliquots of fractions (treated with proteinase K) on DNA agarose gel. An aliquot of TSA-treated or non TSA-treated mononucleosome, a kind gift from Dr. Yoshihiro Nakatani's Lab in Dana Faber Cancer Institute, Harvard Medical School (Tagami et al., 2004), was used here as a control for the quality of mononucleosome made in our lab.
as §1

Substance: BHC80: PHD domain-containing component of the BRAF35/HDAC2 complex, recombinant
- effect on LSD1 demethylase activity on free histones [1]: significantly dampened
- effect of added protein on ability of recombinant LSD1 to demethylate nucleosomal substrates ([2]; bacterially purified protein added to recombinant LSD1): no effect
- demethylase activity of LSD1/CoREST ([2]; increasing amounts of BHC80, nucleosomal substrates): proportional decrease
